These results are taken from PMC5028113.

The target of this data set is interferon-gamma (IFN-γ) (UniProt P01579 24-161). As to the kind of experiment: competition.
Chain of interferon-gamma (IFN-γ) (P01579 24-161): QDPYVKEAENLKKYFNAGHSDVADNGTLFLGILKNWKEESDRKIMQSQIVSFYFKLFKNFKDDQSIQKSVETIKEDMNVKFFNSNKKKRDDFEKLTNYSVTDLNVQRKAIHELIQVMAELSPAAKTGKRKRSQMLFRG

B1: IFN-γ aptamer hybridized with biotin-DNA and thiol-DNA (invertase conjugate) (mixed)
DNA 1: TGGGGTTGGTTGTGTTGGGTGTTGTGTAAAAAAAAAAAAAACTACTCATCTGTGA
DNA 2: AAAAAAAAAAAATCACAGATGAGTAGT
?: AAAAAAAAAAACAACCAACCCCA
modifications: 5' biotin on strand 2; 5' thiol on strand 3
In the case of B1, the binding result was “binds”.
